Measurements as given in patent CN113372440A (SUN YAT SEN UNIV CANCER CENTER SUN YAT SEN UNIV AFFILIATED …, dated 2021).
Where two headings read alike, the source gives them in different places.

Assays:
[1] = target: T1, gLgH蛋白 (recombinant single-chain EBV M81 gL ectodomain - linker - gH ectodomain - 6xHis) (Epstein-Barr virus (M81 strain, …))
[2] = target: gH/gL glycoprotein on EBV virions produced by AKATA cells (Epstein-Barr virus, UniProt P03231 19-706; P03212 23-137); test: cell-based or functional assay
[3] = target: T1, gLgH蛋白 (recombinant single-chain EBV …); test: ELISA, gLgH coated at 2 μg/mL, antibody titrated from 1 μg/mL, HRP goat anti-mouse IgG (Fig. 1)
[4] = target: T1, gLgH蛋白 (recombinant single-chain EBV …); test: ELISA by the method of Example 1 step 5, gLgH coated (Fig. 8)
[5] = target: T1, gLgH蛋白 (recombinant single-chain EBV …); test: SPR by the method of Example 4 (Biacore 8K, Protein A capture, gLgH as analyte) (Fig. 9)

B1: 单克隆抗体6H2 (anti-EBV gLgH mouse monoclonal antibody 6H2) (antibody, V domains shown)
VH: EVKLLESGGGLVQPGGSLKLSCAASGFDFSRYWMTWVRQAPGQGLEWIGEINPDSSTINYTPSLKDKFIISRDNAKNTLYLQVSKLRSEDTALYYCARSPYYYGSSYDVWGAGTAVTVSS
VL: DIVMSQSPSSLAVSAGEKVTMNCKSSQSLLNSRTRKNYLAWYQQKPGQSPKLLIYWASTRESGVPDRFTGSGSGTDFTLTISSVQAEDLAFYYCKQSYNLPTFGGGTKLEIK
notes: also called 单抗6H2; 中和抗体6H2
With B1 as the binder, how does the Kd [1] read?
Its Kd is 2.8 nM.

And the “IC50 in the epithelial cell infection model (HNE1 cells, GFP-EBV, inhibition of GFP-positive cells)” value [2]?
The value was 0.108 µg/mL.

And the EC50 [3]?
The EC50 was 0.0134 µg/mL.

B2: 嵌合单抗C6H2 (mouse 6H2 variable regions on human IgG1/kappa constant regions) (antibody, V domains shown)
VH: EVKLLESGGGLVQPGGSLKLSCAASGFDFSRYWMTWVRQAPGQGLEWIGEINPDSSTINYTPSLKDKFIISRDNAKNTLYLQVSKLRSEDTALYYCARSPYYYGSSYDVWGAGTAVTVSS
VL: DIVMSQSPSSLAVSAGEKVTMNCKSSQSLLNSRTRKNYLAWYQQKPGQSPKLLIYWASTRESGVPDRFTGSGSGTDFTLTISSVQAEDLAFYYCKQSYNLPTFGGGTKLEIKR
notes: also called 嵌合抗体C6H2
Which results are given for B2?
EC50 [4]: 0.0266 µg/mL; Kd [5]: 11.5 nM
